# Laboratory results taken from paper PMC3680732.
# T1: HOT1 DBD (crystal) (human, UniProt Q6NT76 233-345)
# T1 sequence: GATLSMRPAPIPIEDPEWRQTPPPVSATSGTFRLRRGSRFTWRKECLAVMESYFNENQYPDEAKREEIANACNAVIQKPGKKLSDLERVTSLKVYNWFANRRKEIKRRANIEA
# Target: T1, HOT1 DBD (crystal)
# Assay: crystal structure
binder,measurement,value
T1/T2 telomeric crystal duplex (dsDNA) DNA 1: CTGTTAGGGTTAGGGTTAG DNA 2: TCTAACCCTAACCCTAACA,binding result,binds
